Measured values reported in article PMC8154130.
Like-named read-outs stand apart in the source and are kept apart here.

Experiments:
Assay in all cases: EMSA
[1] = target: T1, C-terminal truncated DDX3X (1-582) (Homo sapiens, UniProt O00571)
[2] = target: T1, C-terminal truncated DDX3X (1-582); remark: listed apart in the source
[3] = target: T1, C-terminal truncated DDX3X (1-582); remark: listed apart in the source
[4] = target: T1, C-terminal truncated DDX3X (1-582); remark: listed apart in the source
[5] = target: T1, C-terminal truncated DDX3X (1-582); remark: listed apart in the source

UUUUUUUUUUUUUUUUUUUUGGUGGUUGUG (ssRNA) [C] was tested, and the Kd [1] was 298 ± 31 nM and the Kd [2] was 217 ± 60 nM.

B1: D:E (dsRNA)
RNA 1: CUCAACUCAACCCUUCAUCUCAACUCAACCCUUCAU
RNA 2: AUGAAGGGUUGAGUUGAGAUGAAGGGUUGAGUUGAG
B1: no binding [3].

B2: A:A (dsRNA)
RNA 1: GGCGGCCGCC
RNA 2: GGCGGCCGCC
B2: no binding [3].

B3: B:B (dsRNA)
RNA 1: UUUUUUUUUUUUUUUUUUUUGGCGGCCGCC
RNA 2: UUUUUUUUUUUUUUUUUUUUGGCGGCCGCC
Binder B3 has a Kd [4] of 114 ± 10 nM and a Kd [5] of 285 ± 18 nM.
